Experiment: Stability of purified ArsR protein to freeze thaw
Assay type: physicochemical
Conditions: post-dialysis, 0.48 mg/ml in 50 mM Hepes pH 8.5, 200 mM NaCl, 15 mM DTT, 5% glycerol
Description: Dialysis was performed next. Glycerol was added to bring the pool to a concentration of 5% glycerol by volume. The pool was then diluted to approximately 1 mg/ml with the dialysis buffer listed below. The faction pool was dialyzed in 3500 Molecular Weight Cutoff tubing placed in 1 liter consisting of 50 mM Hepes, pH 8.5, 200 mM NaCl, 1 mM EDTA, 15 mM DTT, and 5% glycerol for five hours. The dialysis tubing was then placed in 4 liters of 50 mM Hepes, pH 8.5, 200 mM NaCl, 15 mM DTT, and 5% glycerol overnight to remove any EDTA. The pool was then clarified by centrifugation, the protein concentration was determined, and a SDS-PAGE was run of the results.
The final product of a pilot production (5 g whole cell pellet from 34 g total) yielded a protein concentration of 480 μg/ml (in a 0.05% polysorbate solution for stabilization of the protein and reduction of non-specific binding to the sensor surface). The total volume for this experiment was 3.6 ml, which yielded a total protein yield of 1.75 mg. This was dissolved in a buffer of 50 mM Hepes, pH 8.5, 200 mM NaCl, 15 mM DTT, and 5% Glycerol. Purity was greater than 95% by SDS PAGE. In this system, induction was tightly regulated and successful, with 30-40% of protein production in soluble fraction. The initial yield from IMAC for dialysis was 5 mg at 1.0 mg/ml., with visible precipitation post dialysis.

B1: ArsR: E. coli arsenic-binding, DNA-binding ars operon repressor protein, SEQ ID NO:2, expressed from codon-optimized synthetic gene (protein)
chain: MLQLTPLQLFKNLSDETRLGIVLLLREMGELCVCDLCMALDQSQPKISRHLAMLRESGILLDRKQGKWVHYRLSPHIPSWAAQIIEQAWLSQQDDVQVIARKLASVNCSGSSKAVCI
stability to freeze thaw cycles: stable to multiple freeze thaw cycles
